Data published in US20100249372A1 (WISCONSIN ALUMNI RESEARCH FOUNDATION, published 2010).

B1: GST-tagged 4th luminal domain (L4) of rat SV2C (other)
chain: FPDVIKHLQSDEYALLTRNVQKDKYANFSINFTMENQVHTGMEYDNGRFLGVKFKSVTFKDSVFKSCTFDDVTSVNTYFKNCTFIDTLFENTDFEPYKFIDSEFQNCSFLHNKTGCQITFDDDYSAY
B2: GST-tagged 4th luminal domain (L4) of rat SV2A (other)
chain: FPDMIRHLQAVDYAARTKVFPGERVEHVTFNFTLENQIHRGGQYFNDKFIGLRLKSVSFEDSLFEECYFEDVTSSNTFFRNCTFINTVFYNTDLFEYKFVNSRLVNSTFLHNKEGCPLDVTGTGEGAY
B3: GST-tagged 4th luminal domain (L4) of rat SV2B (other)
chain: FPDMIRYFQDEEYKSKMKVFFGEHVHGATINFTMENQIHQHGKLVNDKFIKMYFKHVLFEDTFFDKCYFEDVTSTDTYFKNCTIESTTFYNTDLYKHKFIDCRFINSTFLEQKEGCHMDFEEDNDF
B4: synaptotagmin I (other)
chain: MVSASHPEALAAPVTTVATLVPHNATEPASPGEGKEDAFSKLKQKFMNELHKIPLPPWALIAIAIVAVLLVVTCCFCVCKKCLFKKKNKKKGKEKGGKNAINMKDVKDLGKTMKDQALKDDDAETGLTDGEEKEEPKEEEKLGKLQYSLDYDFQNNQLLVGIIQAAELPALDMGGTSDPYVKVFLLPDKKKKFETKVHRKTLNPVFNEQFTFKVPYSELGGKTLVMAVYDFDRFSKHDIIGEFKVPMNTVDFGHVTEEWRDLQSAEKEEQEKLGDICFSLRYVPTAGKLTVVILEAKNLKKMDVGGLSDPYVKIHLMQNGKRLKKKKTTIKKNTLNPYYNESFSFEVPFEQIQKVQVVVTVLDYDKIGKNDAIGKVFVGYNSTGAELRHWSDMLANPRRPIAQWHTLQVEEEVDAMLAVKK

Tests used:
Botulinum neurotoxin E = biological target: T1, Botulinum neurotoxin E (Clostridium botulinum, UniProt Q00496 2-1251); test: pull-down with immobilised GST-L4 (8 µg), western blot
T1 sequence: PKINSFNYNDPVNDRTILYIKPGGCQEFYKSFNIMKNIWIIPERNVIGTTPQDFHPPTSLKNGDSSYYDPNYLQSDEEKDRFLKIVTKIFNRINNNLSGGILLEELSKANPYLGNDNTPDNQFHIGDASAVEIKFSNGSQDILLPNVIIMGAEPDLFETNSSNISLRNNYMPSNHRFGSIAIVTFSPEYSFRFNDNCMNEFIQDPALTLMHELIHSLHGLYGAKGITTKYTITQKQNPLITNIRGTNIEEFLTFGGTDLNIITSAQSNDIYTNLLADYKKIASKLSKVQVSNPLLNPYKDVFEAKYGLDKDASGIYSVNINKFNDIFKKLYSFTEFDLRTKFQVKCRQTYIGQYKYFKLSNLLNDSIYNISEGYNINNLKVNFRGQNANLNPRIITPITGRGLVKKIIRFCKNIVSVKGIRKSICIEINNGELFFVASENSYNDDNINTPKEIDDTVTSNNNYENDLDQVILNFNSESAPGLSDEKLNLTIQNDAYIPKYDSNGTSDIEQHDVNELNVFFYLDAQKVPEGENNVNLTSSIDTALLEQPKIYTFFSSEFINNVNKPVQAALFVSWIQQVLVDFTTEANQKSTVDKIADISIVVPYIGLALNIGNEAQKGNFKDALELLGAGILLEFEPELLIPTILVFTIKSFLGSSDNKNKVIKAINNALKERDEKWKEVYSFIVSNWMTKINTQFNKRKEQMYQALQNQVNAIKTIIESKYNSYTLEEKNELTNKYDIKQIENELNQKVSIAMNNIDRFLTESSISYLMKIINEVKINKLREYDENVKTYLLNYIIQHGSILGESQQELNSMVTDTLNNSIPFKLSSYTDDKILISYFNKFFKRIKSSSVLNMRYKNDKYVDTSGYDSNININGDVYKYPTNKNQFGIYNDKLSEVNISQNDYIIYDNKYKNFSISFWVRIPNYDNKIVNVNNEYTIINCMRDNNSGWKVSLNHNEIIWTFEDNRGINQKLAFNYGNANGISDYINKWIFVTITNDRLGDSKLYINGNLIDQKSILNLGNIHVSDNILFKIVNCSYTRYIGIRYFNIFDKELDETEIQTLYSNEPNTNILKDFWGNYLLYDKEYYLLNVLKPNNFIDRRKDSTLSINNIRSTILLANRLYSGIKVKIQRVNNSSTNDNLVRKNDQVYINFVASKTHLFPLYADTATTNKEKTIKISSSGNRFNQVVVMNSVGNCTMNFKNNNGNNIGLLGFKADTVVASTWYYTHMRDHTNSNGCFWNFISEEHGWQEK

Botulinum neurotoxin B = biological target: T2, Botulinum neurotoxin B (Clostridium botulinum, UniProt P10844 2-1291); test: as above
T2 sequence: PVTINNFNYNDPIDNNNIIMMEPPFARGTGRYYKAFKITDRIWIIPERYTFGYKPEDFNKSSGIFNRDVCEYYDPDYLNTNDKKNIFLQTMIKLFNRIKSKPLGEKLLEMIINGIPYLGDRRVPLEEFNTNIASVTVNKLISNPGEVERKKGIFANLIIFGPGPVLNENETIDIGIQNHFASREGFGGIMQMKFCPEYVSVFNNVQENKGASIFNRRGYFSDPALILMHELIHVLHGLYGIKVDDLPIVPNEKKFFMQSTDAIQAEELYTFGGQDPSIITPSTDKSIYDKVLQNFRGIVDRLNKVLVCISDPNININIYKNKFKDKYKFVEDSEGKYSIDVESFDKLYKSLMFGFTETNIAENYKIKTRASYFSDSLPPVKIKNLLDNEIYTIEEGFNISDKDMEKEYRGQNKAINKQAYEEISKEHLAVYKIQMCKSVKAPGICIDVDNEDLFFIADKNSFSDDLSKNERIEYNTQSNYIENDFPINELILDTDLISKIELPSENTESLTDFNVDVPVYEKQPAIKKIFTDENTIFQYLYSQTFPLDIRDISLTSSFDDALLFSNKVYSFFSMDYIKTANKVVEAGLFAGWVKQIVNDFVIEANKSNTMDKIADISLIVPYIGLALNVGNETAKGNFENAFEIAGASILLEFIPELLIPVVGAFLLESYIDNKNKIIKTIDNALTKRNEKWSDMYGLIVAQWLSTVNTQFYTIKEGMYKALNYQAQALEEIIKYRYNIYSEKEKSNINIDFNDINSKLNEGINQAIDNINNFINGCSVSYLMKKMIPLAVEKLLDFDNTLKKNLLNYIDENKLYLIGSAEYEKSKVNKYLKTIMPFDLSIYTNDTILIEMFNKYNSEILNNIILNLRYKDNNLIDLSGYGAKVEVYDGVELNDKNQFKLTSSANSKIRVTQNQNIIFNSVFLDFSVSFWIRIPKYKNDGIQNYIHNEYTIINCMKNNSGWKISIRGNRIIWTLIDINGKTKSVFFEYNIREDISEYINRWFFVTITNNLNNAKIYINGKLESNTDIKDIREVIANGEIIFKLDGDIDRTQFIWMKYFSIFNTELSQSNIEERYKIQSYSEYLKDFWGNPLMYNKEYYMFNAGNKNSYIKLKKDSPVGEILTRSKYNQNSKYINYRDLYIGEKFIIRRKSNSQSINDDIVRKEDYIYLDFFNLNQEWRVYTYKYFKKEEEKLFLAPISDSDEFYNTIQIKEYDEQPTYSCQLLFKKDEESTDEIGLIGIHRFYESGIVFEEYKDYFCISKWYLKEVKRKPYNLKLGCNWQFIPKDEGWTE

Botulinum neurotoxin A = Botulinum neurotoxin A (Clostridium botulinum, UniProt P0DPI1 2-1296); test: immunostaining of transfected SV2A/B double knockout hippocampal neurons

Binder | binding result (Botulinum neurotoxin E) | binding result (Botulinum neurotoxin B) | binding result (Botulinum neurotoxin A)
B1 | no binding (tested: 100 nM) | no binding (tested: 100 nM) | 
B2 | no binding (tested: 100 nM) | no binding (tested: 100 nM) | 
B3 | no binding (tested: 100 nM) | no binding (tested: 100 nM) | 
B4 |  |  | no binding (tested: 10 nM)
